Results on 5 molecules are retold here after patent US12258584B2, “Methods and systems for converting precursor cells into intestinal tissues through directed differentiation” (Children's Hospital Medical Center, priority 2010, dated 2025).

“Also recorded” adds a separate entry of the source.

What all share (format): cell-based, human
One assay concerns iPSC3.4. In words: Affymetrix microarray analysis of transcript levels during DE formation. Conditions: 3-day activin treated vs undifferentiated cultures, label = gene symbol of the transcript. As to the method:
(§1) For microarray analysis, RNA was isolated from undifferentiated and 3-day activin treated hESC and iPSC cultures and used create target DNA for hybridization to Affymetrix Human 1.0 Gene ST Arrays using standard procedures (Affymetrix, Santa Clara, CA). Independent biological triplicates were performed for each cell line and condition. Affymetrix microarray Cel files were subjected to Robust Multichip Average (RMA) normalization in GeneSpring 10.1. Probe sets were first filtered for those that are overexpressed or underexpressed and then subjected to statistical analysis for differential expression by 3 fold or more between undifferentiated and differentiated cultures with p<0.05 using the Students T-test. Log 2 gene expression ratios were then subjected to hierachical clustering using the standard correlation distance metric as implemented in GeneSpring.

In a further assay the test system is iPSC line 3.12. Described as above. Conditions: 3-day activin treated vs undifferentiated cultures, label = gene symbol of the transcript. As for the experimental part: (§2) FIGS. 6a and 6b illustrate exemplary embodiments in accordance with the present invention, depicting characterization of DE formation from hESC and iPSC lines by immuno-fluorescence (IF) and Microarray analysis. (a) Undifferentiated hESCs stained with the pluripotency marker OCT4 (green) were treated for 3 days with ActivinA. […] (b) Transcriptional profile of DE induction. hESC-H9 and iPSC lines 3.5, 3.6 and 3.12 were analyzed before and after DE formation (activin differentiation) by Affymetrix DNA microarray analysis.
as §1

Another assay relates to hESC-H9. Described as above. Conditions: 3-day activin treated vs undifferentiated cultures, label = gene symbol of the transcript. As to the method: as §2, §1
The subject of assay [1] is H9-HES cells differentiated into definitive endoderm. In words: Posteriorization of definitive endoderm: foregut (ALB, PDX1) and hindgut (CDX2) marker expression by RT-qPCR and immunofluorescence. The following applies: DE treated 24-48 hours; up to 500 ng/ml; RT-qPCR relative to no growth factor control. As for the experimental part: Differentiation of DE in Permissive Media (Differentiation Protocol for FIG. 1). After differentiation into definitive endoderm, cells were incubated in DMEM/F12 plus 2% defined fetal bovine serum (dFBS) with either 0, 50, or 500 ng/ml of FGF4 and/or 0, 50, or 500 ng/ml of Wnt3a (R&D Systems) for 6, 48, or 96 hours. Cultures were then grown in permissive media consisting of DMEM plus 10% fetal bovine serum (FBS) for an additional 7 days.
FIGS. 1a through 1d illustrate exemplary embodiments of the present invention. FGF4 and Wnt3a act synergistically in a temporal and dose-dependent manner to specify stable posterior endoderm fate. ActivinA (100 ng/ml) was used to differentiate H9-HES cells into definitive endoderm (DE). DE was treated with the posteriorizing factors FGF4 (50, 500 ng), Wnt3a (50, 500 ng) or both for 6, 48 or 96 hours. Cells were then cultured in a permissive medium without growth factors for an additional seven days and analyzed for expression of foregut markers (ALB, PDX1) and the hindgut marker (CDX2) by RT-qPCR (a) and immunofluorescence (b-d). FGF4/Wnt-mediated changes in marker expression in (a) is relative to 3-day activin treated DE cultures that were grown for identical lengths of time in the absence of FGF4 or Wnt3a (control). […] Error bars denote standard deviation of triplicates. Significance is shown by; * (p<0.05), ^ (p<0.001), # (p<0.0001).
FIGS. 7a and 7b illustrate exemplary embodiments in accordance with the present invention, depicting time and concentration dependent induction of CDX2 by FGF4 and Wnt3a. (a) FGF4 and Wnt3a up-regulate CDX2 in a concentration dependant manner. 3-day ActivinA treated hESCs were treated for 48 hours with Wnt3a at 50 ng/ml or 500 ng/ml or FGF4 at 50 ng/ml or 500 ng/ml, or increasing concentrations of FGF4+Wnt3a. Cells were analyzed after 48 hours of treatment. […] CDX2 expression was normalized to the internal control beta-tubulin, and is shown relative to a 48 hour control cultured in the absence of growth factors. (b) FGF4 and Wnt3a up-regulate CDX2 in a time dependant manner. 48 hours of exposure to FGF4+Wnt3a was required for the most robust induction of CDX2. All time points shown are set relative to a 0 hour no growth factor control. 500 ng/ml of FGF4, Wnt3a or FGF4+Wnt3a was used for all time points. Note that 24 hour and 48 controls, in the absence of growth factors, show a significant and spontaneous up-regulation of CDX2. Error bars denote standard deviation of triplicates. Significance is shown by; * (p<0.05)
RNA was isolated using the Nucleospin II RNA isolation kit (Clonetech). […] Finally, qPCR was carried out using Quantitect SybrGreen MasterMix (Qiagen) on a Chromo4 Real-Time PCR (BioRad). […]
In general terms: Real-time PCR tracks product formation cycle by cycle.

A further assay relates to H9 hESCs. In words: Hindgut spheroid formation from hESC-H9 definitive endoderm after growth factor treatment. Conditions: for Average # organoids per well / Total # organoids (# organoids/wells counted): hESC-H9 definitive endoderm. As for the experimental part: (§3) Differentiation of PSCs into Definitive Endoderm (DE). Differentiation into Definitive Endoderm was carried out as previously described. Briefly, a 3 day ActivinA (R&D systems) differentiation protocol was used. Cells were treated with ActivinA (100 ng/ml) for three consecutive days in RPMI 1640 media (Invitrogen) with increasing concentrations of 0%, 0.2%, 2% HyClone defined FBS (dFBS) (Thermo Scientific).
(§4) The following tables illustrate the effects of growth factor treatment of hESCs and iPSCs. Generation of hindgut spheroids was tracked for (Table 1A) days 2-5 following growth factor treatment for H9 hESCs or (Table 1B) days 2-4 of growth factor treatment for iPSCs. Definitive endoderm was treated with either 500 ng/ml of FGF4 alone or 500 ng/ml of FGF4+Wnt3a. For both HESCs and iPSCs, hindgut spheroids formed much more robustly under FGF4+Wnt3a conditions. […] Over the course of 4 days, FGF4+Wnt3a treated H9 endoderm generated an average of 4.5 fold more spheroids than that treated with FGF4 alone.
(§5) Generation of hindgut spheroids was tracked for days 2-5 of growth factor treatment (H9 hESCs, Table 1A) or days 2-4 of growth factor treatment (iPSCs, Table 1B) for endoderm being given either 500 ng/ml FGF4 alone or 500 ng/ml FGF4+Wnt3a. In both cell lines, hindgut spheroids were much more robustly generated in FGF4+Wnt3a conditions. Over the course of 4 days, FGF4+Wnt3a treated H9 endoderm generated an average of 4.5 fold more spheroids than FGF4 treated alone.
(§6) Directed differentiation into hindgut and intestinal organoids. After differentiation into definitive endoderm, cells were incubated in 2% dFBS-DMEM/F12 with either 50 or 500 ng/ml FGF4 and/or 50 or 500 ng/ml Wnt3a (R&D Systems) for 2-4 days. After 2 days with treatment of growth factors, 3-dimensional floating spheroids were present in the culture. 3-dimensional spheroids were transferred into an in vitro system previously described to support intestinal growth and differentiation. Briefly, spheroids were embedded in Matrigel (BD Bioscience #356237) containing 500 ng/ml R-Spondin1 (R&D Systems), 100 ng/ml Noggin (R&D Systems) and 50 ng/ml EGF (R&D Systems). After the Matrigel solidified, media (Advanced DMEM/F12 (Invitrogen) supplemented with L-Glutamine, […], N2 supplement (R&D Systems), B27 supplement (Invitrogen), and Pen/Strep containing growth factors was overlaid and replaced every 4 days.

A further assay relates to iPSC-3.5. Nature of the assay: Hindgut spheroid formation from iPSC-3.5 definitive endoderm after growth factor treatment. The following applies: 500 ng/ml; for Average # organoids per well / Total # organoids (# organoids/wells counted): iPSC-3.5 definitive endoderm. As to the method:
as §3, §4, §5, §6

The mark [2] stands for this setting: 500 ng/ml, 2 days (48 h) of GF treatment.
Setting [3] is: 500 ng/ml, 3 days (72 h) of GF treatment.
Where [4] appears, read: 500 ng/ml, 4 days (96 h) of GF treatment.
Setting [5] is: 500 ng/ml, 5 days (120 h) of GF treatment.

As for NODAL, the “[Diff'd-iPSC3.4] vs [Undiff d-iPSC3.4] (folds), variation of transcript level during DE formation” value with iPSC3.4 amounted to 5.00 folds. The “[DIFF'D-IPSC3.12] VS [IFF'D-IPSC3.12] (folds), variation of transcript level during DE formation” value in the assay with iPSC line 3.12 was 5.77 folds. The “DIFF'D-H9] VS [IFF'D-H9] (folds), variation of transcript level during DE formation” value with hESC-H9 came out at 5.66 folds.

Consider DKK1, for which the “[Diff'd-iPSC3.4] vs [Undiff d-iPSC3.4] (folds), variation of transcript level during DE formation” value in the assay with iPSC3.4 came out at 7.27 folds. Besides, the “[DIFF'D-IPSC3.12] VS [IFF'D-IPSC3.12] (folds), variation of transcript level during DE formation” value with iPSC line 3.12 came to 6.27 folds. Moreover, the “DIFF'D-H9] VS [IFF'D-H9] (folds), variation of transcript level during DE formation” value in the assay with hESC-H9 is on record as 9.66 folds.

NPPB: the “[Diff'd-iPSC3.4] vs [Undiff d-iPSC3.4] (folds), variation of transcript level during DE formation” value in the assay on iPSC3.4 is 3.57 folds. Further, the “[DIFF'D-IPSC3.12] VS [IFF'D-IPSC3.12] (folds), variation of transcript level during DE formation” value in the assay with iPSC line 3.12 is 3.62 folds. In the assay with hESC-H9, the “DIFF'D-H9] VS [IFF'D-H9] (folds), variation of transcript level during DE formation” value came to 2.88 folds.

B1: FGF4: fibroblast growth factor 4, soluble growth factor (R&D Systems) known to posteriorize endoderm (protein, UniProt P08620 31-206, looked up)
Fibroblast growth factor 4: APTAPNGTLEAELERRWESLVALSLARLPVAAQPKEAAVQSGAGDYLLGIKRLRRLYCNVGIGFHLQALPDGRIGGAHADTRDSLLELSPVERGVVSIFGVASRFFVAMSSKGKLYGSPFFTDECTFKEILLPNNYNAYESYKYPGMFIALSKNGKTKKGNRVSPTMKVTHFLPRL
As to B1, the “induction of hindgut marker CDX2 expression / posterior fate” value in assay [1] is reported as “neither factor alone was sufficient to robustly promote a posterior fate; also recorded: modest changes in CDX2 expression”. In the assay on H9 hESCs (CDX2 immunostaining of treated DE cultures), the “CDX2 staining of spheroids / 3D structures” value is reported as “weakly CDX2+”. The “fold fewer spheroids generated (versus FGF4+Wnt3a treated cultures)” value with H9 hESCs (Table 1A, H9 hESC definitive endoderm) is recorded as 4-10 fold. Also, the “Average # organoids per well” value stood at 0 in the assay on H9 hESCs (setting [2]); 0 in the assay on H9 hESCs (setting [3]); 8.8 in the assay on H9 hESCs (setting [4]); 4.75 in the assay on H9 hESCs (setting [5]); 0 with iPSC-3.5 (2 days (48 h) of GF treatment); 2.5 in the assay on iPSC-3.5 (3 days (72 h) of GF treatment). Besides, the “Average # organoids per well” value with iPSC-3.5 (4 days (96 h) of GF treatment) was 3.5. Further, the “Total # organoids (# organoids/wells counted)” value with H9 hESCs (setting [2]) is recorded as 0/5; in the assay with H9 hESCs (setting [3]), 0/5; in the assay on H9 hESCs (setting [4]), 44/5; in the assay with H9 hESCs (setting [5]), 19/4; in the assay on iPSC-3.5 (2 days (48 h) of GF treatment), 0/4; with iPSC-3.5 (3 days (72 h) of GF treatment), 10/4. The “Total # organoids (# organoids/wells counted)” value in the assay with iPSC-3.5 (4 days (96 h) of GF treatment) was 14/4.

B2: Wnt3a: soluble Wnt ligand (R&D Systems), growth factor known to posteriorize endoderm (protein, UniProt P56704 19-352, looked up)
Protein Wnt-3a: SYPIWWSLAVGPQYSSLGSQPILCASIPGLVPKQLRFCRNYVEIMPSVAEGIKIGIQECQHQFRGRRWNCTTVHDSLAIFGPVLDKATRESAFVHAIASAGVAFAVTRSCAEGTAAICGCSSRHQGSPGKGWKWGGCSEDIEFGGMVSREFADARENRPDARSAMNRHNNEAGRQAIASHMHLKCKCHGLSGSCEVKTCWWSQPDFRAIGDFLKDKYDSASEMVVEKHRESRGWVETLRPRYTYFKVPTERDLVYYEASPNFCEPNPETGSFGTRDRTCNVSSHGIDGCDLLCCGRGHNARAERRREKCRCVFHWCCYVSCQECTRVYDVHTCK
For B2, the “induction of hindgut marker CDX2 expression / posterior fate” value in assay [1] is “neither factor alone was sufficient to robustly promote a posterior fate; also recorded: modest changes in CDX2 expression”. Further, the “in vitro gut-tube morphogenesis / spheroid formation” value in the assay with H9 hESCs (hESC definitive endoderm, 500 ng/ml) was “never observed; also recorded: never formed spheroids; also recorded: not observed”. In addition, the spheroid formation entry in the assay with iPSC-3.5 (iPSC definitive endoderm) is reported as “never formed spheroids”.
